Laboratory results as given in PMC8833744, “Strategic Decoy Peptides Interfere with MSI1/AGO2 Interaction to Elicit Tumor Suppression Effects” (Cancers, 2022).

Target: recombinant His-tagged AGO2 (UniProt Q9UKV8)
Assay: SPR; Biacore T200; His-AGO2 immobilised on a CM5 chip by amine coupling (~7000 RU); peptides 20 to 1280 nM in HBS-P (10 mM HEPES, 150 mM NaCl, 0.005% T20, pH 7.4), 30 µL/min; Langmuir 1:1 model

Chain of recombinant His-tagged AGO2 (Q9UKV8 whole entry): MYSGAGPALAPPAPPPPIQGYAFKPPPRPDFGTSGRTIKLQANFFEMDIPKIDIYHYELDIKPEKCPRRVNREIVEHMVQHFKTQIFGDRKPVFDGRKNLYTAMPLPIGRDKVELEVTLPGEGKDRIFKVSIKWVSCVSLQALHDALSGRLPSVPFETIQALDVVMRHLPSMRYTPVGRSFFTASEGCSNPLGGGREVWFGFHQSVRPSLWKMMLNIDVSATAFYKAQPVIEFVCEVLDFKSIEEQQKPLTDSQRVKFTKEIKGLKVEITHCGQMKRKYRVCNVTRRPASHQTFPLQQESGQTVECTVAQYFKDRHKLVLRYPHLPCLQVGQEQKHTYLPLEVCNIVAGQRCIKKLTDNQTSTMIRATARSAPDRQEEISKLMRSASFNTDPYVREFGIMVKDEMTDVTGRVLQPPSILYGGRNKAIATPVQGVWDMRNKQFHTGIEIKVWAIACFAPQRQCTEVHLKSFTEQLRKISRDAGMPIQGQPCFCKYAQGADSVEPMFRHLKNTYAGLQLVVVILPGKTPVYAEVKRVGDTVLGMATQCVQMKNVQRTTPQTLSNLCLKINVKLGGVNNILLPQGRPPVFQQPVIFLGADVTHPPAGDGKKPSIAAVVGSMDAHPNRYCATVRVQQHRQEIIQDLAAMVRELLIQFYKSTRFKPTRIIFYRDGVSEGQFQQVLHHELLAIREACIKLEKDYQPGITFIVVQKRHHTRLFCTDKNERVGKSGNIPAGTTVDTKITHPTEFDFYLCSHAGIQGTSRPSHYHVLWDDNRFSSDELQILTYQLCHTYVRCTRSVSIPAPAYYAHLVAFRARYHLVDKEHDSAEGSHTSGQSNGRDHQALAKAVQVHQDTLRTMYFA

negative control peptide (CP) as used in the SPR
Kd: 107 µM
